From article PMC3056017 come the findings set out here.

The target of the experiment is truncated recombinant mOGT (C-654) (human).

As to YSDSPSTST [Peptide (…)], the km for the peptide in the coupled enzyme assay of OGT transglycosylation (double-reciprocal plot; peptide 0.05 to 0.5 mM, UDP-GlcNAc held at 0.5 mM) amounted to 0.16 mM.
